{"source": "patent US20220154138A1", "about": "“METHOD OF PRODUCING PLACENTA-LIKE ORGANOID, PLACENTA-LIKE ORGANOID, AND PRODUCTION OR TEST KIT” (FUJIFILM Corporation, priority 2020, published 2022)", "type_in_all_cases": "cell-based, human", "key": {"iPS cells [1]": {"test_system": "iPS cells", "test": "Three-dimensional suspension culture with BMP4, hCG quantified by i-STAT cartridge Total β-hCG", "method": "(§1) In the i-STAT cartridge Total β-hCG, about 17 μL of the culture supernatant was sampled, injected into the reagent cartridge, and inserted into the single-purpose analyzer.\n(§2) On the other hand, three-dimensional suspension culture was started at the same time using the same iPS cells used in the two-dimensional culture adhesion culture. 30 mL of an iPS cell medium (StemFit (registered trade name) AK02N: Ajinomoto Co., Inc.) was dispensed into a 30 mL volume spinner flask (ABLE Corporation), and then iPS cells (1.3×10^6 cells/mL) were seeded. In the same manner as in the two-dimensional adhesion culture, BMP4 was not added at the start of culture, but a medium to which a solution containing 50 μg/mL BMP4 (R&D Systems Inc.) was added at the same proportion as that used in the two-dimensional adhesion culture was used after the 4th day of culture. After the start of culture, the addition of BMP4 to the medium was continued until the 14th day of culture while the medium was exchanged every 3 to 4 days, and thereafter, a medium to which BMP4 had not been added was used. In three-dimensional suspension culture, stirring culture was continued in a spinner flask throughout the culture period. While continuing the two-dimensional adhesion culture and the three-dimensional suspension culture, the culture supernatant was appropriately sampled after the 7th day of culture, and the amount of hCG produced was quantified using the i-STAT cartridge Total β-hCG. Since there are differences in the number of cells that can be seeded at the start of culture and the adding amount of medium between the two-dimensional culture and the three-dimensional culture, there are differences in the hCG concentration and the total hCG production in the culture supernatant, and thus it is not possible to simply compare them. For this reason, the hCG quantification value on the 7th day of culture after the start of differentiation induction into the placenta was set to 100, and the ratio of the hCG quantification value on the subsequent culture measurement day to the hCG quantification value on the 7th day of culture was calculated. That is, in a case where the hCG quantification value on the 7th day is set to 100 in each of the two-dimensional and three-dimensional culture forms, the subsequent changes after the 7th day in the hCG production amount are shown in FIG. 2. It was confirmed that in the two-dimensional culture, the decrease in hCG production amount is particularly remarkable after the 15th day of culture, whereas in the three-dimensional culture, the hCG continues to be produced after the 15th day, and even on the 25th day of culture, 10 times or more of the hCG production is maintained as compared with the 7th day of culture."}, "iPS cells [2]": {"test_system": "iPS cells", "test": "Two-dimensional adhesion culture of iPS cells with BMP4, hCG in culture supernatant by GONASTICK W", "settings": "2D adhesion culture, StemFit, BMP4 present", "method": "In GONASTICK W, about 0.5 to 1 mL of the culture supernatant was sampled, and a test strip was soaked therein. After the soaking was completed, the determination surface of the test strip was placed to face upward and allowed to stand until the culture supernatant passed through the determination window and reached the reaction end window. […] The detection sensitivity of the present examination reagent is 25 IU/L, and a blue control line corresponding to an hCG concentration of 1,000 IU/L is printed in advance on the determination window, which can be visually compared with the determination line.\nIn a case where a line equal to or more blue-colored than the control line was visually observed on the determination line, it was judged as positive (+).\nIn a case where the line was not visually observed on the determination line, it was determined to be negative (−).\nIn a case where a line that was less blue-colored than the control line but was visible was visually observed on the determination line, it was determined to be (+/−).\nLaminin (iMatrix-511: Nippi. Inc.) was diluted with Dulbecco's phosphate buffered saline (DPBS), 1 mL thereof per well was dispensed into a 6-well plate (Falcon TC: #353046), and the plate was allowed to stand in a 37° C. incubator for 1 hour to be coated with laminin. 2 mL of an iPS cell medium (StemFit (registered trade name) AK02N: Ajinomoto Co., Inc.) to which 2 μL of a solution containing 50 μg/mL BMP4 (R&D Systems Inc.) had been added was dispensed into the laminin-coated plate, and iPS cells (4×10^4 cells/well) were seeded therein. The culture was continued while appropriately changing the medium, and the hCG contained in the culture supernatant was detected using a drug for in vitro diagnosis for the pregnancy test, GONASTICK W (MOCHIDA PHARMACEUTICAL Co., Ltd.), whereby the differentiation induction into a placental tissue was checked. As a negative control, the same culture was carried out using a medium to which BMP4 had not been added. The hCG was started to be produced on the 7th day of culture; however, the hCG production stopped around the 18th day (Table 1)."}, "iPS cells [3]": {"test_system": "iPS cells", "test": "Two-dimensional adhesion culture with BMP4, hCG quantified by i-STAT cartridge Total β-hCG", "method": "as §1\nTwo-dimensional adhesion culture was carried out by the following method. Laminin (iMatrix-511: Nippi. Inc.) was diluted with Dulbecco's phosphate buffered saline (DPBS), 1 mL thereof per well was dispensed into a 6-well plate (Falcon TC: #353046), and the plate was allowed to stand in a 37° C. incubator for 1 hour to be coated with laminin. 2 mL of an iPS cell medium (StemFit (registered trade name) AK02N: Ajinomoto Co., Inc.) was dispensed into the laminin-coated plate in a state where a BMP4 solution was not added, iPS cells (4×10^4 cells/well) were seeded therein, the culture was continued while appropriately changing the medium, and from the 4th day of culture, 2 mL of an iPS cell culture medium (StemFit (registered trade name) AK02N: Ajinomoto Co., Inc.) to which 2 μL of a solution containing 50 μg/mL BMP4 (R&D Systems Inc.) solution had been added so that the BMP4 concentration was to be 50 ng/mL was used at the time of the medium exchange.\nas §2"}, "[4]": {"settings": "Three-dimensional culture, day 10"}, "[5]": {"settings": "Three-dimensional culture, day 14"}, "[6]": {"settings": "Three-dimensional culture, day 17"}, "[7]": {"settings": "Three-dimensional culture, day 19"}, "[8]": {"settings": "Three-dimensional culture, day 21"}, "[9]": {"settings": "Three-dimensional culture, day 25"}}}
{"molecule": "BMP4: bone morphogenetic protein BMP4 (R&D Systems Inc.), added to iPS cell medium at 50 ng/mL to induce differentiation (protein, UniProt P12644 293-408, looked up) Bone morphogenetic protein 4: SPKHHSQRARKKNKNCRRHSLYVDFSDVGWNDWIVAPPGYQAFYCHGDCPFPLADHLNSTNHAIVQTLVNSVNSSIPKACCVPTELSAISMLYLDEYDKVVLKNYQEMVVEGCGCR", "values": [{"measurement": "hCG production", "setting": "iPS cells [1]; Three-dimensional culture, BMP4 day 4 to 14, day 7", "value": 1.6, "unit": "IU"}, {"measurement": "hCG* production (hCG production on each of culture days/hCG production amount on 7th day) × 100", "setting": "iPS cells [1]; Three-dimensional culture, day 7", "value": 100, "unit": "AU"}, {"measurement": "hCG production", "setting": "iPS cells [1]; [4]", "value": 61, "unit": "IU"}, {"measurement": "hCG* production (relative to 7th day × 100)", "setting": "iPS cells [1]; [4]", "value": "3,936 AU"}, {"measurement": "hCG production", "setting": "iPS cells [1]; [5]", "value": 79, "unit": "IU"}, {"measurement": "hCG* production (relative to 7th day × 100)", "setting": "iPS cells [1]; [5]", "value": "5,044 AU"}, {"measurement": "hCG production", "setting": "iPS cells [1]; [6]", "value": 120, "unit": "IU"}, {"measurement": "hCG* production (relative to 7th day × 100)", "setting": "iPS cells [1]; [6]", "value": "7,692 AU"}, {"measurement": "hCG production", "setting": "iPS cells [1]; [7]", "value": 120, "unit": "IU"}, {"measurement": "hCG* production (relative to 7th day × 100)", "setting": "iPS cells [1]; [7]", "value": "7,692 AU"}, {"measurement": "hCG production", "setting": "iPS cells [1]; [8]", "value": 54, "unit": "IU"}, {"measurement": "hCG* production (relative to 7th day × 100)", "setting": "iPS cells [1]; [8]", "value": "3,465 AU"}, {"measurement": "hCG production", "setting": "iPS cells [1]; [9]", "value": 23, "unit": "IU"}, {"measurement": "hCG* production (relative to 7th day × 100)", "setting": "iPS cells [1]; [9]", "value": "1,498 AU"}, {"measurement": "hCG production on 25th day as compared with the 7th day of culture", "setting": "iPS cells [1]; three-dimensional culture", "value": "≥ 10", "unit": "times"}, {"measurement": "hCG production", "setting": "iPS cells [2]; day 7", "value": "+ (a line equal to or more blue-colored than the control line was visually observed on the determination line, it was judged as positive (+))"}, {"measurement": "hCG production", "setting": "iPS cells [2]; day 11", "value": "+ (a line equal to or more blue-colored than the control line was visually observed on the determination line, it was judged as positive (+))"}, {"measurement": "hCG production", "setting": "iPS cells [2]; day 15", "value": "+ (a line equal to or more blue-colored than the control line was visually observed on the determination line, it was judged as positive (+))"}, {"measurement": "hCG production", "setting": "iPS cells [2]; day 18", "value": "+/− (a line that was less blue-colored than the control line but was visible was visually observed on the determination line, it was determined to be (+/−))"}, {"measurement": "hCG production", "setting": "iPS cells [2]; day 21", "value": "− (the line was not visually observed on the determination line, it was determined to be negative (−))"}, {"measurement": "hCG production", "setting": "iPS cells [3]; BMP4 50 ng/mL from day 4, day 7", "value": 6.6, "unit": "IU"}, {"measurement": "hCG* production (hCG production on each of culture days/hCG production amount on 7th day) × 100", "setting": "iPS cells [3]; day 7", "value": 100, "unit": "AU"}, {"measurement": "hCG production", "setting": "iPS cells [3]; day 11", "value": 8.0, "unit": "IU"}, {"measurement": "hCG* production (relative to 7th day × 100)", "setting": "iPS cells [3]; day 11", "value": 120, "unit": "AU"}, {"measurement": "hCG production", "setting": "iPS cells [3]; day 15", "value": 5.0, "unit": "IU"}, {"measurement": "hCG* production (relative to 7th day × 100)", "setting": "iPS cells [3]; day 15", "value": 75, "unit": "AU"}, {"measurement": "hCG production", "setting": "iPS cells [3]; day 18", "value": 4.1, "unit": "IU"}, {"measurement": "hCG* production (relative to 7th day × 100)", "setting": "iPS cells [3]; day 18", "value": 62, "unit": "AU"}, {"measurement": "hCG production", "setting": "iPS cells [3]; day 22", "value": 1.4, "unit": "IU"}, {"measurement": "hCG* production (relative to 7th day × 100)", "setting": "iPS cells [3]; day 22", "value": 20, "unit": "AU"}, {"measurement": "hCG production", "setting": "iPS cells [3]; day 25", "value": 1.6, "unit": "IU"}, {"measurement": "hCG* production (relative to 7th day × 100)", "setting": "iPS cells [3]; day 25", "value": 25, "unit": "AU"}]}
